{
  "source": "patent US20100129344A1",
  "about": "(published 2010)",
  "binders": {"B1": {"name": "Recombinant phosphorylated IGFBP-1 (human), intact (other, UniProt P08833 26-259, looked up)", "chain": "APWQCAPCSAEKLALCPPVSASCSEVTRSAGCGCCPMCALPLGAACGVATARCARGLSCRALPGEQQPLHALTRGQGACVQESDASAPHAAEAGSPESPESTEITEEELLDNFHLMAPSEEDHSILWDAISTYDGSKALHVTNIKKWKEPCRIELYRVVESLAKAQETSGEEISKFYLPNCNKNGFYHSRQCETSMDGEAGLCWCVYPWNGKRIPGSPEIRGDPNCQIYFNVQN", "modifications": "phosphorylated; the sites were not determined here (the filing names Ser101, Ser119, Ser169 as sites for phosphorylation)", "notes": "mature; Analyte in the BIAcore runs and substrate in the protease assays; also called pIGFBP-1; recombinant pIGFBP-1"}},
  "key": {"IGF-II (human) [1]": {"target": "T1, IGF-II (human) (human, UniProt P01344 25-91)", "T1 construct": "also called radioiodinated IGF-II", "T1 sequence (P01344 25-91 limits assumed)": "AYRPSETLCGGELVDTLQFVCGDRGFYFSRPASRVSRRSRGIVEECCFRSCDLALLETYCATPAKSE", "test": "BIAcore, IGF-II on chip against IGF-I on chip, 400 nM", "experimental": "(§1) Instrument and reagents (buffers, chemicals for activating and deactivated) were purchased from BIAcore (Uppsala, Sweden). IGF-I, IGF-II and des(1-3)IGF-I were immobilized on the sensor chip by amine coupling and deactivated with 0.1M ethanolamine. A reference flow cell was also prepared to correct for background and bulk refractive index contribution. After equilibration buffer to achieve a stable baseline, binding experiments was at 22 C in 2 separate experiments with the samples injected in random order. 40 μl of each sample was injected over the sensor surface at a rate of 10 μl/min (association period), followed by a 6 min wash with buffer (dissociation period). The sensor surface was regenerated with 20 μl of 100 mM HCl and washed for 6 min before the next sample. We used a 1:1 Langmuir binding interaction model for kinetic analysis using the BIAcore software and GraphPad Prism (GraphPad Software Inc, San Diego, Calif.).\nThe interaction of proteolysed IGFBP-1 with IGF-I and IGF-II biosensor surfaces was analysed (BIAcore). […] The kinetic analyses of the rates of association (over 21-120 s, ks) and dissociation (over 261-360 s, kd) for the results shown in FIGS. 12A and 12B are summarized in Table 2. […] The rate of dissociation further increased to more than 7-fold at the 4-h time point. […]"}, "[2]": {"target": "T2, Recombinant IGF-I (human) (human, UniProt P05019 49-118)", "T2 construct": "also called IGF-1; full length IGF-I", "T2 sequence (P05019 49-118 limits assumed)": "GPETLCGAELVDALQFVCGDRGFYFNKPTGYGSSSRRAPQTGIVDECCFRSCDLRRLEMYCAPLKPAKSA", "test": "BIAcore, IGF-I on chip, 400 nM", "experimental": "as §1\n(§2) The interaction of proteolysed IGFBP-1 with IGF-I and IGF-II biosensor surfaces was analysed (BIAcore). In FIG. 12 the mean biosensorgrams for the interaction of 200 nM phosphorylated IGFBP-1 intact are shown, and after 2-h and 4-h incubations with partially purified azurocidin, with immobilized IGF-I (FIG. 12A) and IGF-II (FIG. 12B). […]"}, "[3]": {"target": "T2, Recombinant IGF-I (human)", "test": "BIAcore, IGF-I on chip, 200 nM (the reference itself)", "experimental": "as §1, §2"}, "IGF-II (human) [4]": {"target": "T1, IGF-II (human)", "test": "cell-based or functional assay"}, "IGF-II (human) [5]": {"target": "T1, IGF-II (human)", "test": "BIAcore, IGF-II on chip against IGF-I on chip, 200 nM", "experimental": "as §1, §2"}, "IGF-II (human) [6]": {"target": "T1, IGF-II (human)", "test": "BIAcore, IGF-II on chip, 400 nM", "experimental": "The sensor surface was regenerated with 20 μl of 100 mM HCl and washed for 6 min before the next sample. We used a 1:1 Langmuir binding interaction model for kinetic analysis using the BIAcore software and GraphPad Prism (GraphPad Software Inc, San Diego, Calif.).\nThe interaction of proteolysed IGFBP-1 with IGF-I and IGF-II biosensor surfaces was analysed (BIAcore). […] The kinetic analyses of the rates of association (over 21-120 s, ks) and dissociation (over 261-360 s, kd) for the results shown in FIGS. 12A and 12B are summarized in Table 2. […] The rate of dissociation further increased to more than 7-fold at the 4-h time point. The rate of dissociation of IGFBP-1 from IGF-II was greater than twice that from IGF-I, and proteolysis had no effect on this relationship.\nTABLE 2 Kinetic analysis of interactions of intact and proteolysed phosphorylated IGFBP-1 with IGF biosensor surfaces The kinetic data shown in […] were analysed using the 1:1 Langmuir interaction model. IGFBP-I was injected either intact, or after 2- or 4-proteolysis by azurocidin, over IGF-I and IGF-II biosensor surfaces."}, "IGF-II (human) [7]": {"target": "T1, IGF-II (human)", "test": "BIAcore, IGF-II on chip, 200 nM (the reference itself)", "experimental": "as §1, §2"}, "des(1-3)IGF-I": {"target": "T3, des(1-3)IGF-I (human, UniProt P05019 52-118)", "T3 construct": "domain: des(1-3)IGF-I (mature IGF-I without its first three residues)", "T3 sequence (P05019 52-118 limits assumed)": "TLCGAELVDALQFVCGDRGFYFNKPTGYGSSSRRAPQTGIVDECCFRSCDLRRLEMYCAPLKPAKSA", "test": "BIAcore, des(1-3)IGF-I amine-coupled on chip", "experimental": "Recombinant pIGFBP-1 was analyzed across a des(1-3) IGF-I biosensor surfaces with a concentration range of 50, 100, 200, 400 nM, at a flow rate of 10 μl/min. The mean sensorgrams are shown for 400 nM IGFBP-1 (intact, n=3) and 200 nM IGFBP-1, intact (0 h, n=4) and after 2-h (n=5) and 4-h (n=3) incubations with partially purified azurocidin in a protease:substrate ratio of 1:3 500 for 2 h at 37 C.\nas §1, with “We used a 1:1 Langmuir binding interaction model for kinetic analysis using the BIAcore software and GraphPad Prism (GraphPad Software Inc, San Diego, Calif.).” left out\nThe interaction of IGFBP-1 with des(1-3)IGF-I on the biosensor surface was also determined. […]"}},
  "data": [
    {"binder": "B1", "values": [
      {"measurement": "kd rel to IGF-I", "setting": "IGF-II (human) [1]", "result": 2.33, "unit": "ratio"},
      {"measurement": "ks rel to IGF-I", "setting": "IGF-II (human) [1]", "result": 1.01, "unit": "ratio"},
      {"measurement": "rel kd (relative to 200 nM intact pIGFBP-1)", "setting": "[2]", "result": 1, "unit": "ratio"},
      {"measurement": "rel ks (relative to 200 nM intact pIGFBP-1)", "setting": "[2]", "result": 1.91, "unit": "ratio"},
      {"measurement": "rel kd (relative to 200 nM intact pIGFBP-1)", "setting": "[3]", "result": 1, "unit": "ratio"},
      {"measurement": "rel ks (relative to 200 nM intact pIGFBP-1)", "setting": "[3]", "result": 1, "unit": "ratio"},
      {"measurement": "3H-thymidine incorporation in MCF-7 cells stimulated by IGF-II 10 ng/ml (2-fold without IGFBP-1)", "setting": "IGF-II (human) [4]", "result": 1.5, "unit": "fold"},
      {"measurement": "kd rel to IGF-I", "setting": "IGF-II (human) [5]", "result": 2.41, "unit": "ratio"},
      {"measurement": "ks rel to IGF-I", "setting": "IGF-II (human) [5]", "result": 1.02, "unit": "ratio"},
      {"measurement": "rel kd (relative to 200 nM intact pIGFBP-1)", "setting": "IGF-II (human) [6]", "result": 0.97, "unit": "ratio"},
      {"measurement": "rel ks (relative to 200 nM intact pIGFBP-1)", "setting": "IGF-II (human) [6]", "result": 1.86, "unit": "ratio"},
      {"measurement": "rel kd (relative to 200 nM intact pIGFBP-1)", "setting": "IGF-II (human) [7]", "result": 1, "unit": "ratio"},
      {"measurement": "rel ks (relative to 200 nM intact pIGFBP-1)", "setting": "IGF-II (human) [7]", "result": 1, "unit": "ratio"},
      {"measurement": "fold lower biosensor response than with full length IGF-I", "setting": "des(1-3)IGF-I", "result": 10, "unit": "fold less"}
    ]}
  ]
}
